Source: patent US20230051715A1 (MABWELL THERAPEUTICS, published 2023)

Legend:
[1] = biological target: T1, human C1s mutant M7 (D343Y & E351A) (human, UniProt P09871 16-688); test: ELISA, plate coated with human C1s mutant M7: D343Y, E351A, OD450nm
T1 construct: The entry is the mutant itself
T1 sequence: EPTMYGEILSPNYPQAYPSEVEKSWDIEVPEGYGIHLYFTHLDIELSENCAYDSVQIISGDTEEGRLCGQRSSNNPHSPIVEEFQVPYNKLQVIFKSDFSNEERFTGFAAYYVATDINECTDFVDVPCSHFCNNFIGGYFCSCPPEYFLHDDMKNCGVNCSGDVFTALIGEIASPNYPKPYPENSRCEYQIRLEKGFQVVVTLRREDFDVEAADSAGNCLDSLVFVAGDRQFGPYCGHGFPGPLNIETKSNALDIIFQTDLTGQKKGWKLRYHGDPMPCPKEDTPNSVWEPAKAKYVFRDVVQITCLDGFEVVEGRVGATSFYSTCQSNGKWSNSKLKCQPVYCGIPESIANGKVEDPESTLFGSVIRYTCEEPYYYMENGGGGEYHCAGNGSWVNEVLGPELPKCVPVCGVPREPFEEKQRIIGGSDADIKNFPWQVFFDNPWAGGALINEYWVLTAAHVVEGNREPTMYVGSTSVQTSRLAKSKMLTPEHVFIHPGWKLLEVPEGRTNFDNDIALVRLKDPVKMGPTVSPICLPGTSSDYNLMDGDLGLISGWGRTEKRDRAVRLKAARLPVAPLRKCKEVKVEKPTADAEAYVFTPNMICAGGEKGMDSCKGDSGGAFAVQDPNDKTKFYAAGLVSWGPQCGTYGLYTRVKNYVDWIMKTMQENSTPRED
Experimental: (§1) ELISA was carried out by first coating 96-well plates with 200 ng/well of full-length or truncated C1s proteins overnight. The next morning, plates were blocked with SuperBlock T20 blocking buffer (Thermo Scientific 37536) for 1 h with gentle shaking. Then, various concentrations of anti-C1s antibodies diluted in SuperBlock T20 blocking buffer were added to the plates and incubated for 1 h with gentle shaking. Mouse IgG (Sigma-Aldrich 15381) and human IgG1 (BioXCell BP0297) were used as negative controls. The plates were washed before incubating with HRP conjugated secondary antibodies diluted in SuperBlock T20 blocking buffer (goat anti-mouse IgG (H+L) cross-adsorbed secondary antibody HRP (Invitrogen G-21040) or goat anti-human IgG antibody, HRP conjugate (Millipore AP309P)) for 1 h with gentle shaking. At last, the plates were washed and color developed with ELISA liquid HRP substrate (Sigma-Aldrich), followed by stopping the reaction with addition of 1M H₂SO₄ in the same volume as the ELISA liquid substrate. Bound antibody was measured by absorbance at OD₄₅₀ₙₘ.
(§2) Binding of anti-C1s antibodies to mutants M1-M20 of human C1s was measured by ELISA as described in Example 4, and results are shown in FIGS. 6B-6U. All anti-C1s humanized variants including hz2-7(H1L2), hz2-8(H1L2 G80A) and hz2-8(H1L2 G80A/T82A) maintained strong binding properties to the majority (16 out of 20) of C1s mutants including M1 (FIG. 6B), M2 (FIG. 6C), M3 (FIG. 6D). M4 (FIG. 6E), M7 (FIG. 6H), M8 (FIG. 6I), M10 (FIG. 6K), M11 (FIG. 6L), M12 (FIG. 6M), M13 (FIG. 6N), M15 (FIG. 6P), M16 (FIG. 6Q), M17 (FIG. 6R), M18 (FIG. 6S), M19 (FIG. 6T) and M20 (FIG. 6U).

[2] = biological target: T2, human C1s mutant M14 (R316H) (human, UniProt P09871 16-688); test: ELISA, plate coated with human C1s mutant M14: R316H, OD450nm
T2 construct: The entry is the mutant itself
T2 sequence: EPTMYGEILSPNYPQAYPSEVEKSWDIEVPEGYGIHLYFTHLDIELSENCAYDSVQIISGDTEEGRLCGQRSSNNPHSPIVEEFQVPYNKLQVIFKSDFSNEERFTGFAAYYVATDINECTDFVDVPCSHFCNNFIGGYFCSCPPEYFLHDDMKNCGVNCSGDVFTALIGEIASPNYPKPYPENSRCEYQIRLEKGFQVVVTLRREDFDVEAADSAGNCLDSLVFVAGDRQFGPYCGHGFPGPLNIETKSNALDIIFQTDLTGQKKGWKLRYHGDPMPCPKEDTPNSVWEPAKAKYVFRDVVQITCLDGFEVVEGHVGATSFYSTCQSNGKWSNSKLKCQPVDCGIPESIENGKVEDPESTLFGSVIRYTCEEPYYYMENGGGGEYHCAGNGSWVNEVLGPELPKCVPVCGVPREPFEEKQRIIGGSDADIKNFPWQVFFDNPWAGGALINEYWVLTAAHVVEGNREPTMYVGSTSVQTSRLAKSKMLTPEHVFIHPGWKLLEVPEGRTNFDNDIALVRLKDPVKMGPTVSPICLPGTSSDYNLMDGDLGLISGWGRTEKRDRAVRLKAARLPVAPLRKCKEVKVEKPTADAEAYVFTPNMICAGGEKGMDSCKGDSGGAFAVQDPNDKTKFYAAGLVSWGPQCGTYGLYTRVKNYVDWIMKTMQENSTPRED
Experimental: as §1, §2

[3] = biological target: T3, human C1s mutant M15 (S360N) (human, UniProt P09871 16-688); test: ELISA, plate coated with human C1s mutant M15: S360N, OD450nm
T3 construct: The entry is the mutant itself
T3 sequence: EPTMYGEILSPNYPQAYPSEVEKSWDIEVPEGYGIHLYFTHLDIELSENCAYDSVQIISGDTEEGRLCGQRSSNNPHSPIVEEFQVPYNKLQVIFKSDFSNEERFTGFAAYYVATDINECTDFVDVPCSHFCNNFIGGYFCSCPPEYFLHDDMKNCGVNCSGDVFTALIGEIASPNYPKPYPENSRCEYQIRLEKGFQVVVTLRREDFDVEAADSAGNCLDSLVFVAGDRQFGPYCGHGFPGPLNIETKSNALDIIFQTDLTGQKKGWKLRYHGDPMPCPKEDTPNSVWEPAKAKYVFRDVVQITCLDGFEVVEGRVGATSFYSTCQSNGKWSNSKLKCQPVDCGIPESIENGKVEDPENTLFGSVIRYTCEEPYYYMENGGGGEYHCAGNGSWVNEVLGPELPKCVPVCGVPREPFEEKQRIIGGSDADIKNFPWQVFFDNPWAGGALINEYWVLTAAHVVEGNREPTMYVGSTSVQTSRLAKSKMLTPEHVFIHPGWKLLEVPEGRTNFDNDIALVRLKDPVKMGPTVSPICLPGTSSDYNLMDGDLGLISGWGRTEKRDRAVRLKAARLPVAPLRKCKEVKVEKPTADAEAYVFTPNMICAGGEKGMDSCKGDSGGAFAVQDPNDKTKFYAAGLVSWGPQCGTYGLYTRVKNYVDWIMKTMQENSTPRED
Experimental: as §1, §2

| Binder | EC50 [1] [ng/mL] | binding result [2] | EC50 [3] [ng/mL] | EC50 [2] [ng/mL] |
| --- | --- | --- | --- | --- |
| Anti-C1s antibody hz2-7(H1L2) (antibody, V domains shown, Humanized, human IgG1 / kappa; also called hz2-7(1L2)) VH: EVQLLESGGGLVQPGGSLRLSCAASGFTFSNYFMNWVRQAPGKGLEWVSEIRLKFTNYATHYADSVKGRFTISRDDSKSTLYLQMNSLRAEDTAVYYCTRDYGSRNGYFDYWGQGTLVTVSS VL: DIVMTQTPLSLPVTPGEPASISCRSSKSLLHSNGNTFLYWFLQKPGQSPQLLIYRMSNLASGVPDRFSGSGSGTDFTLKISRVEAEDVGVYYCMQHLEYPYTFGGGTKLEIKR | 15 | no binding (tested: 1000 ng/ml (Log 3)) | 3 |  |
| Anti-C1s antibody hz2-8 (H1L2 G80A) (antibody, V domains shown, Humanized variant with G80A in HC CDR2 (already in the entry), human IgG1 / kappa) VH: QVQLVQSGAEVKKPGASVKVSCKASGFNIKEYYMHWVRQAPEQGLEWMGWIDPENADTIYAQKFQGRVTITADTSTNTAYMELSSLRSEDTAVYYCARSRLFFAYWGQGTLVTVSS VL: DIQMTQSPKSLSASVGDRVTITCRASQDVRTALDWYQQKPGQSPKLLIYSASYRYSGVPSRFSGSGSGTDFTLTISSLQPEDFATYYCQQQYTTPYTFGQGTKLEIKR | 12 |  | 4 | 5 |
| Anti-C1s antibody hz2-8 (H1L2 G80A/T82A) (antibody, V domains shown, Humanized variant with G80A and T82A in HC CDR2 (already in the entry), human IgG1 / kappa) VH: QVQLVQSGAEVKKPGASVKVSCKASGFNIKEYYMHWVRQAPEQGLEWMGWIDPENADAIYAQKFQGRVTITADTSTNTAYMELSSLRSEDTAVYYCARSRLFFAYWGQGTLVTVSS VL: DIQMTQSPKSLSASVGDRVTITCRASQDVRTALDWYQQKPGQSPKLLIYSASYRYSGVPSRFSGSGSGTDFTLTISSLQPEDFATYYCQQQYTTPYTFGQGTKLEIKR | 11 |  | 5 | 8 |
